# B1: CODA1048: engineered chimeric LGIC receptor, R101F, Y210F in SEQ ID NO: 33 (protein)
# chain: MRCSPGGVWLALAASLLHVSLQGEFQRKLYKELVKNYNPLERPVANDSQPLTVYFSLSLLQIMDVDEKNQVLTTNIWLQMSWTDHYLQWNVSEYPGVKTVFFPDGQIWKPDILLYNSADERFDATFHTNVLVNSSGHCQYLPPGIFKSSCPMDLKNFPMDVQTCKLKFGSWSYGGWSLDLQMQEADISGYIPNGEWDLVGIPGKRSERFFECCKEPYPDVTFTVTMRRRMGYYLIQMYIPSLLIVILSWISFWINMDAAPARVGLGITTVLTMTTQSSGSRASLPKVSYVKAIDIWMAVCLLFVFSALLEYAAVNFVSRQHKELLRFRRKRRHHKSPMLNLFQEDEAGEGRFNFSAYGMGPACLQAKDGISVKGANNSNTTNPPPAPSKSPEEMRKLFIQRAKKIDKISRIGFPMAFLIFNMFYWIIYKIVRREDVHNQ
# modifications: synthetic sequence of chimeric LGIC
# Key:
# Lenti-X 293T cells = experiment: YFP fluorescence quenching anion reporter plate reader assay of engineered receptors stimulated with acetylcholine or a non-native ligand; assay type: cell-based
# Procedure, shortened: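 Lenti-X 293T cells carrying a YFP anion reporter were transiently transfected with channel DNA and assayed the next day in HEPES-buffered ECS at pH 7.2. Ligand (acetylcholine or non-native ligand) was added in NaI-substituted ECS. Percent quench was the mean of the last 10 s relative to the 15 s pre-addition baseline.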
# rat DRG neurons = experiment: Rheobase shift and evoked action potentials in rat DRG neurons (current clamp); assay type: cell-based
# Description: Using whole cell manual patch clamp electrophysiology in HEK293 cells, rat DRG neurons and rat hippocampal neurons, the EC50 of the various engineered receptors disclosed herein to Ach and non-native ligands was measured using the Hill equation with peak current measurements from escalating doses of ligand. The rheobase shift was also measured in rat DRG neurons, which reflects the efficacy of the receptors. To calculate the rheobase, first, the amount of current that can produce an action potential was determined. Then the ligand was added, followed by a step wise increase in the current injected up to 700 pA.
# For manual patch clamp experiments, Cells plated on coverslips were visualized at 10× and 40× on an inverted fluorescence microscope (Olympus). Recordings were made with an Axopatch 200B amplifier and Digidata 1550B (Molecular Devices) at RT using 3-6 MOhm glass patch electrodes (Sutter, BF150-86-10). Unless otherwise stated, recordings were made in extracellular solution (ECS) containing: 140 mM sodium chloride, 4 mM potassium chloride, 1 mM magnesium chloride, 2 mM calcium chloride, 10 mM HEPES, and 10 mM D-(+)-glucose (pH=7.3 with sodium hydroxide, osmolarity=305−315 mOsm). An 8-line reservoir (AutoMate Scientific) in combination with an 8-channel zero-dead-volume perfusion pencil (AutoMate Scientific) was used for perfusion. Data was acquired using pClamp software (Molecular Devices). Traces were either analyzed in Clampfit (Molecular Devices) or using custom Python code. Plotting and statistics were performed in GraphPad Prism.
# DRG rheobase experiments were performed in current clamp mode using a potassium-based internal solution containing: 100 mM potassium D-gluconate, 28 mM potassium chloride, 1 mM magnesium chloride hexahydrate, 5 mM magnesium ATP, 10 mM HEPES, and 0.5 mM EGTA (pH=7.2 with potassium hydroxide, osmolarity=290-295 mOsm, calculated liquid junction potential=−13.5 mV). To measure DRG input resistance and rheobase, 500 ms current steps (−200 pA to 700 pA) were applied the membrane in the presence and absence of a compound. No holding current was applied to the membrane for cells included in the final datasets. Data were acquired at 10 kHz, with Bessel filter at 2 kHz and series resistance compensation at 100%. Rheobase was defined as the smallest depolarizing current injection required to cause an action potential to fire in the cell. In a subset of cells, the rheobase was ambiguous, since the action potential appeared to be graded in amplitude. In these cases, a […] of the trace clarified the rheobase. Input resistance was measured from the negative current injections, calculated as the difference in membrane potential at steady state divided by the current injection amplitude and then averaged across the four negative current steps for each recording. Resting membrane potential was measured from the first 100 ms of each sweep, averaged for each recording, and corrected for liquid junction potential. One-way ANOVA with multiple comparisons was used to test for significance of difference in rheobase and input resistance between baseline, drug, and wash conditions.
molecule,measurement,setting,value
B1,YFP fluorescence quenching using CNL001,"Lenti-X 293T cells; 1 nM CNL001, first column",9.114%
same,YFP fluorescence quenching using CNL001,"Lenti-X 293T cells; 1 nM CNL001, second column",0.845%
same,YFP fluorescence quenching using TC-5619/Bradanicline,Lenti-X 293T cells; 1 nM brd,−2.084%
same,YFP fluorescence quenching using TC-5619/Bradanicline,Lenti-X 293T cells; 3 nM brd,−9.098%
same,YFP fluorescence quenching using Varenicline,"Lenti-X 293T cells; 3 nM var, first column",−17.119
same,YFP fluorescence quenching using Varenicline,"Lenti-X 293T cells; 3 nM var, second column",−13.234
same,YFP fluorescence quenching using CNL001,"Lenti-X 293T cells; 10 nM CNL001, first column",28.944%
same,YFP fluorescence quenching using CNL001,"Lenti-X 293T cells; 10 nM CNL001, second column",53.629%
same,YFP fluorescence quenching using TC-5619/Bradanicline,Lenti-X 293T cells; 10 nM brd,−2.587%
same,YFP fluorescence quenching using TC-5619/Bradanicline,Lenti-X 293T cells; 30 nM brd,55.818%
same,YFP fluorescence quenching using Varenicline,"Lenti-X 293T cells; 30 nM var, first column",−7.747
same,YFP fluorescence quenching using Varenicline,"Lenti-X 293T cells; 30 nM var, second column",4.193
same,YFP fluorescence quenching using CNL001,"Lenti-X 293T cells; 50 nM CNL001, first column",68.581%
same,YFP fluorescence quenching using CNL001,"Lenti-X 293T cells; 50 nM CNL001, second column",74.379%
same,YFP fluorescence quenching using ABT-126,Lenti-X 293T cells; 50 nM abt,−23.28%
same,YFP fluorescence quenching using CNL001,"Lenti-X 293T cells; 100 nM CNL001, first column",80.541%
same,YFP fluorescence quenching using CNL001,"Lenti-X 293T cells; 100 nM CNL001, second column",80.774%
same,YFP fluorescence quenching using ABT-126,Lenti-X 293T cells; 100 nM abt,−21.78%
same,YFP fluorescence quenching using TC-5619/Bradanicline,Lenti-X 293T cells; 100 nM brd,76.957%
same,YFP fluorescence quenching using ABT-126,Lenti-X 293T cells; 300 nM abt,−19.35%
same,YFP fluorescence quenching using TC-5619/Bradanicline,Lenti-X 293T cells; 300 nM brd,74.268%
same,YFP fluorescence quenching using Varenicline,"Lenti-X 293T cells; 300 nM var, first column",4.149
same,YFP fluorescence quenching using Varenicline,"Lenti-X 293T cells; 300 nM var, second column",1.512
same,YFP fluorescence quenching using Varenicline,"Lenti-X 293T cells; 500 nM var, first column",−1.572
same,YFP fluorescence quenching using Varenicline,"Lenti-X 293T cells; 500 nM var, second column",3.71
same,YFP fluorescence quenching using CNL001,"Lenti-X 293T cells; 1 uM CNL001, first column",83.143%
same,YFP fluorescence quenching using CNL001,"Lenti-X 293T cells; 1 uM CNL001, second column",81.751%
same,YFP fluorescence quenching using ABT-126,Lenti-X 293T cells; 1 uM abt,−16.33%
same,YFP fluorescence quenching using Varenicline,"Lenti-X 293T cells; 1 uM var, first column",8.414
same,YFP fluorescence quenching using Varenicline,"Lenti-X 293T cells; 1 uM var, second column",4.091
same,"percent quench of YFP fluorescence, 30 nM TC-6683",Lenti-X 293T cells; TC-6683 30 nM,−29.055%
same,"percent quench of YFP fluorescence, 300 nM TC-6683",Lenti-X 293T cells; TC-6683 300 nM,−33.935%
same,"percent quench of YFP fluorescence, 3 uM TC-6683",Lenti-X 293T cells; TC-6683 3 uM,−24.613%
same,"percent quench of YFP fluorescence, 30 uM TC-6683",Lenti-X 293T cells; TC-6683 30 uM,−21.752%
same,"percent quench of YFP fluorescence, 100 uM TC-6683",Lenti-X 293T cells; TC-6683 100 uM,−22.815%
same,"percent quench of YFP fluorescence, 100 uM ach",Lenti-X 293T cells; acetylcholine 100 uM,−17.31%
same,"percent quench of YFP fluorescence, 300 uM ach",Lenti-X 293T cells; acetylcholine 300 uM,−13.7%
same,"percent quench of YFP fluorescence, 500 uM ach",Lenti-X 293T cells; acetylcholine 500 uM,−10.1%
same,"percent quench of YFP fluorescence, 1 mM ach",Lenti-X 293T cells; acetylcholine 1 mM,5.53%
same,"percent quench of YFP fluorescence, 3 mM ach",Lenti-X 293T cells; acetylcholine 3 mM,68.61%
same,"percent quench of YFP fluorescence, 10 mM ach",Lenti-X 293T cells; acetylcholine 10 mM,78.22%
same,"Rheobase Shift; Rat DRG Neurons, +TC-5619 @ EC90",rat DRG neurons; +TC-5619 @ EC90,590 ± 46 pA
same,"Rheobase Shift; Rat DRG Neurons, Baseline","rat DRG neurons; Baseline, no ligand",120 ± 19 pA

# Source: patent US20240317834A1, “COMPOSITIONS AND METHODS FOR NEUROLOGICAL DISEASES” (CODA BIOTHERAPEUTICS, INC., priority 2020, published 2024)
